Measurements as given in patent US7291332B2, “Inflammatory mediator antagonists” (SmithKline Beecham Corporation, priority 1998, dated 2007).

Tests used:
[1] = system: OSM-induced sPAP release, HepG2 B6 cells; assay: HepG2 B6: OSM-induced sPAP assay; type: cell-based, human
Source text: A HepG2 cell line (ECACC) was stably transfected with six functional STAT3 response elements (REs) upstream of sPAP (secreted placental alkaline phosphatase) cDNA as described below to form HepG2B6. STAT3 (signal transducer and activator of transcription) is an intermediate in the IL-6 cytokine family […] signalling cascade. Following dimerisation of cell surface receptors STAT3 is phosphorylated and will then bind to DNA REs in the nucleus and activate DNA downstream, in this construct that DNA is sPAP. Thus this line can be driven to produce sPAP by overnight incubation in Oncostatin M.
HepG2 B6 cells were plated into 96 well plates to a final concentration of 3×10^4 cells per well in 100 μl of media (DMEM (Sigma), 10% HI FCS, 1% non-essential amino acids, 2 mM Glutamine, 500 μg ml^−1 G418, (all from Life Technologies)). Cells were allowed to equilibrate for 48 hours. Putative anti-OSM solid compounds were made up to a stock dilution of 20 mM in DMSO and serially diluted 1:3 in DMSO. This was then further diluted in HepG26B assay media, this is as above media but with 1% heat inactivated FCS, low alkaline phosphatase activity (Life Technologies) substituted for 10% HI FCS. Compounds were diluted 1:3 from a top concentration of […] to a final concentration of 0.09 μM in a final concentration of 1% DMSO. (That is 200, 66.67, 22.22, 7.41, 2.47, 0.82, 0.27, 0.09 and 0 μM). The old media was removed from the wells and replaced with diluted compound also containing 2 ng ml^−1 OSM (R&D Systems), cells were incubated for a further 20 hours. Each dilution was performed in triplicate. 20 μl of media was removed from each well and assayed for sPAP activity using pNPP (p-Nitrophenyl phosphate; Sigma), as a substrate. Endogenous alkaline phosphatase is blocked with L-homoarginine. Optical density of substrate is read at 405-650 nm. Concentration of compound is plotted against OD as a measure of sPAP produced and can be analysed to determine IC50 values.

[2] = system: TNFα-induced sPAP release, A549 cells; assay: A549 cells: TNFα-induced sPAP assay; type: cell-based, human
Method: This assay used A549 cells that had been stably transfected with a reporter gene, comprising the cytokine responsive region of the E-selectin gene coupled to alkaline phosphatase (Ray et al., Biochem J. 328:707-715, 1997). This transfected cell line can be driven to produce sPAP by overnight incubation with TNFα.
A549 cells were plated into 96 well plates to a final concentration of 5×10^4 cells per well in […] of media. Cells were allowed to equilibrate for 24 hours. Putative anti-OSM solid compounds are made up to a stock dilution of 20 mM in DMSO and serially diluted 1:3 in DMSO. This was then further diluted in media (DMEM, 1% heat inactivated FCS, low alkaline phosphatase activity, 1% non-essential amino acids, 2 mM Glutamine, 500 μg ml^−1 G418, (all from Life Technologies), to give a concentration response of 0.09-200 μM in a final concentration of 1% DMSO. The old media was removed from the wells and replaced with diluted compound also containing 3 ng ml^−1 TNFα (R&D Systems), cells were incubated for a further 20 hours. Each dilution was performed in triplicate. 20 μl of media was removed from each well and assayed for sPAP activity using p-Nitrophenyl phosphate (Sigma), as a substrate. […] Optical density of substrate is read at 405-650 nm. Concentration of compound is plotted against OD as a measure of sPAP produced and can be analysed to determine IC50 values.

[3] = target: T1, L-selectin (Homo sapiens, UniProt P14151); assay: Stimulation of PBMC via L-selectin: OSM secretion (ELISA); type: cell-based; conditions: 24 hr incubation
T1 construct: endogenous in cells; host or cells: human peripheral blood mononuclear cells (buffy coats)
T1 sequence (P14151 39-372): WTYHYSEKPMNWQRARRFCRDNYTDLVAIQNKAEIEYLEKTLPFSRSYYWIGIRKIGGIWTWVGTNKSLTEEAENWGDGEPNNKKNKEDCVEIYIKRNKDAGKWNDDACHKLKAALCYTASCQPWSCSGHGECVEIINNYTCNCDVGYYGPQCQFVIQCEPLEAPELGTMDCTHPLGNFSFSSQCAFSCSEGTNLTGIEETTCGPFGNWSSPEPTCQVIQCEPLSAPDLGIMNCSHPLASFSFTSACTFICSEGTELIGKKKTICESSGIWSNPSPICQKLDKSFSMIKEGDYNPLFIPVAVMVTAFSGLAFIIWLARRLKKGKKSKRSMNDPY
Method: Mononuclear cells were isolated from human buffy coats as described above. 5×10^5 cells were plated out in 0.5 ml volumes and incubated for 24 hr at 37° C., 5% CO2 with 60-80 kD M. wt. fucoidan (Sigma) anti-L-selectin monoclonal antibodies, LAM1-3 and TQ1 or an isotype matched control IgG antibody (all from Coulter). Supernatants were assayed for OSM using a specific ELISA assay (Quantikine, R&D Systems), according to the Manufacturer's instructions.
Mononuclear cells from healthy donors were incubated for 24 hrs with anti-human L-selectin antibodies, (either TQ1 or LAM-1), or an isotype-matched control antibody and culture supernatants assayed by ELISA for OSM. […] The ability of the L-selectin agonist fucoidan to induce OSM from mononuclear cell cultures was then investigated.

[4] = system: THP-1 cells; assay: OSM-induced TNFα production by PMA-differentiated THP-1 cells (ELISA, RT-PCR); type: cell-based, human
Method: Human pro-monocytic line THP-1 cells (ECACC) were passaged twice weekly in RPMI supplemented with 10% heat-inactivated FCS, 10 mM hepes, 1% non-essential amino acids (all from Sigma), 4 mM L-glutamine (Hyclone), 100 U/ml penicillin+100 μg/ml streptomycin (Hyclone) (complete medium, CM) and then PMA (Sigma) was added to washed cells at 1 ug/ml and Incubated at 37° C. for 30 minutes. Cells were washed ×3 in pre-warmed PBS, resuspended in CM and plated out at 1.5×10^5 cells/ml in 96-well flat bottomed plates (Costar). Plates were incubated for 48 hours at 37° C., 5% CO2, then washed with PBS, the media replaced, and incubated for a further 24 hours. Cells were washed ×1 in PBS before use.
(§1) Lyophilised, recombinant human oncostatin M (rhOSM) was purchased from R&D Systems diluted to 10 μg/ml in sterile PBS+0.1% BSA (Sigma) and aliquots stored at −20° C. until use. rhOSM, E. coli-derived LPS or CM were added to triplicate wells of macrophages, monocytes or Thp-1 cells, prepared as above and incubated for 7 hours at 37° C., 5% CO2. Supernatants were harvested and frozen at −20° C. until testing for TNFα protein by ELISA. In assays designed to co-assay for TNFα mRNA, cells were incubated as above for 4 hrs, washed once in PBS and lysed in RNA extraction buffer (RNAzole).
RNA was detected as follows. Total RNA was prepared according to the manufacturer's instructions and stored at −80° C. in DEPC-treated water. For RT-PCR, approximately 1 ug of RNA was reverse transcribed using oligo dT priming (first strand cDNA synthesis kit, Pharmacia Biotech) and the resulting cDNA subjected to 30 cycles of PCR using the following primers for TNFα (Clontech amplimers): forward—[…], (SEQ ID 1) reverse-[…] CCAGAC (SEQ ID 2). The amplified product (444 bp) was separated by agarose gel (2%) electrophoresis and visualized by ethidium bromide staining.
The human pro-monocytic line THP-1, was induced to differentiate using PMA, washed thoroughly, and incubated with recombinant human OSM as described above. Culture supernatants were removed at 8 hours and assayed for TNFα production by specific ELISA (TNF Quantikine, R&D Systems) in accordance with manufacturers instructions. OSM induced a dose-related release of TNFα, measurable above 1 ng/ml OSM and maximal at 200-500 ng/ml, routinely reaching secreted levels of greater than 2500 pg/ml TNFα.

[5] = system: human blood monocytes; assay: OSM-induced TNFα secretion by interferon-γ pre-activated blood monocytes (ELISA); type: cell-based; conditions: co-incubated 8 hr with OSM, n=4 donors
Method: Human buffy coats (North London Blood Transfusion Centre) were diluted 1:3 with PBS, layered onto Lymphoprep (Nycomed UK) and centrifuged at 600×g for 30 minutes at room temperature. Harvested PBMC were washed 3 times in PBS, counted, and resuspended in 80 mls RPMI 1640/10% FCS at 5×10^6 cells/ml. 20 mls were put into each of four 175 cm^2 flasks and Incubated overnight at 37° C. to allow monocytes to adhere. Non-adherent cells were discarded and adherent cells scraped off after incubation with ice-cold versene at 4° C. for 15 minutes. Cells were washed twice in PBS, resuspended in RPMI 1640+10% heat inactivated human serum (Sigma) at 6.9×10^5/ml and 250 ul cell suspension placed into each well of 96-well flat bottomed plate (Costar). To half the plate was added 100 IU/ml IFNγ (Genzyme), the other half left as control. Plates were incubated overnight at 37° C., 5% CO2 prior to assay. […]
Importantly, TNFα induction was not due to contaminating endotoxin as pre-boiling of OSM completely ablated TNFα secretion (data not shown). […] Both cell types, when co-incubated for 8 hr with OSM, secreted TNFα, as measured by ELISA. […]

[6] = system: human blood macrophages; assay: OSM-induced TNFα secretion by blood macrophages (ELISA); type: cell-based; conditions: co-incubated 8 hr with OSM, n=3 donors
Method: as §1
Importantly, TNFα induction was not due to contaminating endotoxin as pre-boiling of OSM completely ablated TNFα secretion (data not shown). Also, removal of OSM by immunoprecipitation using specific antibody abolished activity (data not shown). These findings were extended to include human blood monocytes, pre-activated with interferon-γ and human blood macrophages, differentiated in culture for 7 days. Both cell types, when co-incubated for 8 hr with OSM, secreted TNFα, as measured by ELISA. Mean TNFα secretion by monocytes was 1447 pg/ml (range 137-4709 pg/ml; n=4 donors) and 542 pg/ml by macrophages (range 62-1428 pg/ml; n=3 donors).

[7] = system: Bovine nasal cartilage; assay: Cartilage degradation assay (hydroxyproline/collagen release, MMP1)
Method: Bovine nasal septum cartilage was held at 4° C. overnight after slaughter. 2 mm diameter discs were cut from 2 mm slices and washed twice in HBSS. Three discs per well of a 24 well plate (Costar) were incubated at 37° C., 5% CO2 for 24 hrs in a 600 μl volume of DMEM (Sigma) containing 25 mM HEPES supplemented with 2 mM glutamine, 100 μg/ml streptomycin, 100 U/ml penicillin and 2.5 μg/ml amphotericin B (cartilage degradation medium, CDM). Cartilage was cultured in quadruplicate wells in either: 600 μl of CDM alone, 2, 10 or 50 ng/ml human recombinant TNFα alone, 10 ng/ml rhOSM alone (R&D systems) or TNFα+OSM and incubated for 7 days at 37° C., 5% CO2. Supernatants were harvested and replaced with fresh medium containing identical test reagents to day 1. […] The cumulative level of OH-proline released into the medium by day 14 was measured and expressed as the percentage of total released as set out below.
Hydroxyproline release was assayed (as a measure of collagen degradation) using a microtitre plate modification of the method in (Bergmann I and loxley R. (1963) Anal. Biochem. 35 1961-1965. Chloramine T (7%) w/v) was diluted 1:4 in acetate citrate buffer (57 g sodium acetate, 37.5 g tri-sodium citrate, 5.5 g citrate acid, 385 ml propan-2-ol per liter water). […] The plate was heated to 65° C. for 35 min, cooled and the absorbance at 560 nm determined. […]

## O=C(Nc1ncnc2[nH]ncc12)c1ccccc1 [GW 340442X, N-(1H-pyrazolo[3,4-d]pyrimidin-4-yl)benzamide]
[1]; HepG2 B6
  inhibition of OSM-induced sPAP release: concentration-dependent inhibition
[1]; Homo sapiens, HepG2, 2 ng/ml OSM, 20 hours, read-out: IC50, inhibition of OSM-induced sPAP release
  IC50: 0.3 µM
[1]; from sPAP IC50 values
  selectivity for OSM over TNFα: greater than 100 fold
[2]; A549 cells
  inhibition of TNFα-induced sPAP release: limited inhibition
[2]; Homo sapiens, A549, 3 ng/ml TNFα, 20 hours, read-out: approx. IC50, inhibition of TNFα-induced sPAP
  IC50: ~92 µM

## fucoidan
[3]
  OSM secretion by mononuclear cells: powerful stimulant of OSM secretion

B1: OSM: recombinant human oncostatin M purchased from R&D Systems (protein)
chain: AAIGSCSKEYRVLLGQLQKQTDLMQDTSRLLDPYIRIQGLDVPKLREHCRERPGAFPSEETLRGLGRRGFLQTLNATLGCVLHRLADLEQRLPKAQDLERSGLNIEDLEKLQMARPNILGLRNNIYCMAQLLDNSDTAEPTKAGRGASQPPTPTPASDAFQRKLEGCRFLHGYHRFMHSVGRVFSKWGESPNRSRRHSPHQALRKGVRRTRPSRKGKRLMTRGQLPR
[4]; 4 hr with 100 ng/ml OSM, relative to unstimulated control cells
  Expression of TNFα message (RT-PCR): strongly increased
[4]; 8 hours
  OSM concentration above which TNFα release is measurable: above 1 ng/ml
  OSM concentration at which TNFα release is maximal: 200 to 500 ng/mL
[4]; PMA-differentiated THP-1, supernatants at 8 hours, at maximal OSM
  secreted levels of TNFα: greater than 2500 pg/ml
[5]
  Mean TNFα secretion by monocytes: 1447 pg/mL
[6]
  Mean TNFα secretion by macrophages: 542 pg/mL
[7]; OSM alone at 10 ng/ml, day 14
  collagen release: did not induce collagen release
[7]; day 7, OSM 10 ng/ml, TNFα 50 ng/ml
  MMP1 secretion (total collagenase activity): neither OSM nor TNFα alone, used at 10 ng/ml or 50 ng/ml, respectively, induced significant MMP1 secretion
